Experimental data reported in patent publication US9920295B2, “Bioreactor for isolation of rare cells and methods of use” (The Trustees of the University of Pennsylvania, priority 2012, dated 2018).

Test system: CD34+-derived cells
Test: Apoptosis by cleaved caspase-3 intracellular flow cytometry and Annexin-V
Assay type: cell-based, human
Conditions: G-CSF 100 ng/ml; CH-223191 500 nM (4n fraction)
Experimental: Cells were fixed with 4% paraformaldehyde in PBS for 10 min, washed with PBS and resuspended in 0.1% saponin in HBSS (staining medium). The samples were then stained with antibodies against cytoplasmic antigens, including NMM-IIA (Sigma), NMM-IIB, phospho-NMM-IIA and caspase-3 (all from Cell Signaling Technology) for 30 min at room temperature. In some cases, cells were concurrently stained with PE anti-CD34 or anti-human CD38 for subpopulation analysis. Cells were then washed and stained with anti-rabbit or mouse secondary antibodies conjugated with Alexa 647 (Invitrogen) for 30 min, followed by analysis on FACSCalibur.

B1: G-CSF: human recombinant granulocyte colony-stimulating factor (protein, UniProt P09919 31-207, looked up)
Granulocyte …: TPLGPASSLPQSFLLKCLEQVRKIQGDGAALQEKLVSECATYKLCHPEELVLLGHSLGIPWAPLSSCPSQALQLAGCLSQLHSGLFLYQGLLQALEGISPELGPTLDTLQLDVADFATTIWQQMEELGMAPALQPTQGAMPAFASAFQRRAGGVLVASHLQSFLEVSYRVLRHLAQP
viability of untreated CD34+ and CD34− cells: improves the viability
